According to article doi:10.1101/2024.11.01.621505:

Molecular target: CCR9 ΔCT (human) (UniProt P51686)
Chain of UniProt P51686 (P51686 1-334, stated change not applied): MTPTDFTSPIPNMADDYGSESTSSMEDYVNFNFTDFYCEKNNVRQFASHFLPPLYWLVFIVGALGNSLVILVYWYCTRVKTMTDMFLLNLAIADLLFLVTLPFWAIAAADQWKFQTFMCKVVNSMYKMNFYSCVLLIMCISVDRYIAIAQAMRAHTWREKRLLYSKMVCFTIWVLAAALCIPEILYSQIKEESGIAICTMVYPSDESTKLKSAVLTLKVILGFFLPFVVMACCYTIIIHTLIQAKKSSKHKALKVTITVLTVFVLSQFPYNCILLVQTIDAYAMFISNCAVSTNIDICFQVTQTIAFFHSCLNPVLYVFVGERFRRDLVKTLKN

Gi activation: area over the G⍺i-Gβγ dissociation curve (AOC), against CCR9 WT: 6 fold
Substance: G⍺i-Nluc (from UniProt P63096 1-354) (natural protein)
